Experimental data as given in US8080523 (dated 2011).

B1: Kv1.3 (other)
chain: MTVVPGDHLLEPEAAGGGGGDPPQGGCGSGGGGGGCDRYEPLPPALPAAGEQDCCGERVVINISGLRFETQLKTLCQFPETLLGDPKRRMRYFDPLRNEYFFDRNRPSFDAILYYYQSGGRIRRPVNVPIDIFSEEIRFYQLGEEAMEKFREDEGFLREEERPLPRRDFQRQVWLLFEYPESSGPARGIAIVSVLVILISIVIFCLETLPEFRDEKDYPASPSQDVFEAANNSTSGAPSGASSFSDPFFVVETLCIIWFSFELLVRFFACPSKATFSRNIMNLIDIVAIIPYFITLGTELAERQGNGQQAMSLAILRVIRLVRVFRIFKLSRHSKGLQILGQTLKASMRELGLLIFFLFIGVILFSSAVYFAEADDPSSGFNSIPDAFWWAVVTMTTVGYGDMHPVTIGGKIVGSLCAIAGVLTIALPVPVIVSNFNYFYHRETEGEEQAQYMHVGSCQHLSSSAEELRKARSNSTLSKSEYMVIEEGGMNHSAFPQTPFKTGNSTATCTTNNNPNSCVNIKKIFTDV
B2: Kv1.1 (other)
chain: MTVMSGENADEASTAPGHPQDGSYPRQADHDDHECCERVVINISGLRFETQLKTLAQFPNTLLGNPKKRMRYFDPLRNEYFFDRNRPSFDAILYYYQSGGRLRRPVNVPLDMFSEEIKFYELGEEAMEKFREDEGFIKEEERPLPEKEYQRQVWLLFEYPESSGPARVIAIVSVMVILISIVIFCLETLPELKDDKDFTGTIHRIDNTTVIYTSNIFTDPFFIVETLCIIWFSFELVVRFFACPSKTDFFKNIMNFIDIVAIIPYFITLGTEIAEQEGNQKGEQATSLAILRVIRLVRVFRIFKLSRHSKGLQILGQTLKASMRELGLLIFFLFIGVILFSSAVYFAEAEEAESHFSSIPDAFWWAVVSMTTVGYGDMYPVTIGGKIVGSLCAIAGVLTIALPVPVIVSNFNYFYHRETEGEEQAQLLHVSSPNLASDSDLSRRSSSTISKSEYMEIEEDMNNSIAHYRQANIRTGNCTTADQNCVNKSKLLTDV

How the values were obtained:
[1] = target: ShK(D3)
[2] = target: ShK(D2)
[3] = target: ShK(L1)
[4] = target: ShK(L3)

| Binder | Kd [1] [nM] | Kd [2] [nM] | Kd [3] [nM] | Kd [4] [nM] |
| --- | --- | --- | --- | --- |
| B1 | 0.07 | – | – | – |
| B2 | – | 1.1 | 1 | 1.1 |
